# Reference: a protein production outcome set (Wang et al. 2014)
# Experiment: label from the status in PepcDB records
row,Sequence,protein production
1,PPLYVPEQLVVHKETHQAHVMIGSRGYNAYDDKRTALYLLNNILGGPGMNSRLNVSLRERRGLVYTVESNLTSYTDTGAFCIYFGTDPEDVDTCLKLTYKELKRMRDVKMTSSQLMAAKKQLIGQIGVASDNNENNALGMAKTFLHYNKYESSESVFRRIEALTAEGLLEVANEMFAEEYLSTLIY,failed
2,MKKFKLSSFLPLSYILLLVLVSPLYDVLNKSTVHAVDVTTVVDDWIPFVKAFIIPYLLWFPYLYGALIYYCFADRKQYYVTLSSVIFGKLACFSIYYFWQTTVPRPTVVGTDVFSELVRYIYSIDQPVNCFPSIHVLTTFVIMLAAFKRREQHAFEYYILTFFGTLIILSTLFTKQHAFLDAVSGMTLASILYFGVQLLLAKEPIKVPVKQNHKM,failed
3,MKSLKGIIYAMISSGTFGLIPLFTIPLMGNMEMNESNILFYRFLFSTLMMGAVCLLHKSTLKINMKHLISIIGLGALYALTALFLIYSYHYITSGVATTIHFLYPICVSFLMVVFFKEQKSKSLFLAASLSLIGVALMCWSGGGSIRLMGIGLAALTILTYGIYIVALNQLDIGKLPAEVLTFYVLLGGCVIFFIYSLFTAGISSIPSTKAGFYILALAFLSTVISDLTLILAVKYAGSTTTAILGSMEPLVAVVVGVLVFSEHFTLQSLIGLLLILMSVIIVILADQQKKSKRITEQKIIKPH,failed
4,FRLIGKHRLPRVDSAAKSDGSALYTQDMKLPGMLVAVVAHAPRLGAAVARVDDAAARAVPGVRAVVRFGGAALRHAGVAVLATNTWAARAGRDALRIEWDEGP,failed
5,MSVAAGGPAGAAIPESRLMALGIIGGLGGIYASTVNPVIGPVFASLGAVCAIIWGADAIRRVASYGLGTGVPSIGYMSVSIGIVGVVAGLASVFTLPALAAPVVGLILAMILGVVVAVLGKKIVKMKIPILEKCTAEISGAAALSVLGFSAAIAGSYTMQAVLTSVIATGFIGLLFILNTMAIQHPFNACLGPNENQTRTLKLAASTGFISMAIAGLLGIGLNPGWWLVSLVGALCWVVAFKSFVSASFEEAASVKWSGLWPKEEEQ,failed
6,MKAVVMAGGEGTRLRPMTANQPKPLLPVVNRPIMEHVLRLLKRHGFEDTVVTVQFLATLIRNYFGDGEELGMSLRYVAEEVPLGTAGSVKNAEEHLRGEPFIVISGDALTDIDLTDMVRFHRENGALVTIGLKRVANPLEFGIIIVDDNGRIQRFLEKPTWGQVFSDTVNTGIYIMEPEVLDHVAPGENVDWSGDVFPKLLKAGAPLYGYIADGYWEDVGTHESYLRAQADVLSGKVDVEIDGFEVSPGIWVAEGAEVDPEAVLKGPLYIGDYAKVEPGAELREFTVLGSNVVVRSEAFLHRAVVHDNVYVGTRANLRGCVVGKNTDIMAGVRIEEGTVVGEECVLESEAYLANNIKVYPFKTIEAGAVVNTNVIWESKGQRSLFGPRGVSGLINVEITPELAVRLASAYATTLKKGAVVTTARDASRAARTLKRAVISALTAAAINVQDLEATPLPLARFHTSQPGLSGGIALRTTPGDPQSVDIVFLDSSGADLSPAAQRKLERVFSRQEYRRAFPGEIAELSFPSRSVEAYTRELLQSIDLSGVAEANLKVVVDCAGGTGSLILPALLSQIDADVLTVNNRLDEASPTDTPAKRTRDLQRLGELVASARADFGVRFDPVGERIQLVDGSGTLVDDERALLVVLDLVAAERQGGRVALPVTTTRVAEQVANRHGVDVQWTPTSLDALTKAALADDIIFAADGRGGFILPEFSRTCDGIAAFVRLIGLVARTKMSLSQIDQRIPQAHLLRRSVPTPWAVKGSVMREVVEAAQGREIDTTDGVRVIEPDGSWALVLPDTAEAVTHLWAEGPDDETAQRLLEEWSAVVERAEG,failed
7,GLIDESEQRLVDNIFEFEEKKIREIMVPRTDMVCIYESDSEEKILAILKEEGVTRYPVCRKNKDDILGFVHIRDLYNQKINENKIELEEILRDIIYISENLTIDKALERIRKEKLQLAIVVDEYGGTSGVVTIEDILEEIVGEIQ,not failed
8,MSLVLVDHPRPGVALITLNRPERMNSMAFDVMVPLKEALQKVTYDNAVRVVVLTGAGRGFSSGADHKSAGTVPHVEGLTRPTYALRSMEILDEVILALRRLHQPVIAAVNGPAIGGGLCLALAADIRVASTSAYFRAAGINNGLTASELGLSYLLPRAIGSSRAFEIMLTGRDVTAEEAERIGLVSCQVPEEQLLDTCYAIAARIAAFSRPGIELTKRTLWSGLDAGSLEGHMQAEGLGQLFVRLLTANFEEAVAARAERRPPVFTDDK,failed
9,MEEGKMDENEWGYHGEGNKSLVVAHAQRCVVLRFLKFPPNRKKTSEEIFQHLQNIVDFGKNVMKEFLGENYVHYGEVVQLPLEFVKQLCLKIQSERPESRCDKDLDTLSGYAMCLPNLTRLQTYRFAEHRPILCVEIKPKCGFIPFSSDVTHEMKHKVCRYCMHQHLKVATGKWKQISKYCPLDLYSGNKQRMHFALKSLLQEAQNNLKIFKNGELIYGCKDARSPVADWSELAHHLKPFFFPSNGLASGPHCTRAVIRELVHVITRVLLSGSDKGRAGTLSPGLGPQGPRVCEASPFSRSLRCQGKNTPERSGLPKGCLLYKTLQVQMLDLLDIEGLYPLYNRVERYLEEFPEERKTLQIDGPYDEAFYQKLLDLSTEDDGTVAFALTKVQQYRVAMTAKDCSIMIALSPCLQDASSDQRPVVPSSRSRFAFSVSVLDLDLKPYESIPHQYKLDGKIVNYYSKTVRAKDNAVMSTRFKESEDCTLVLHKV,failed
10,MEAARSMTFSECAALYIKAHRSSWKNTKHADQWTNTIKTYCGPVIGPLSVQDVDTKLIMKVLDPIWEQKPETASRLRGRIESVLDWATVRGYREGDNPARWRGYLEHHHHHH,not failed
11,SGHPPLEFSDCYLDSPDFRERLKCYEQELERTNKFIKDVIKDGNALISAMRNYSSAVQKFSQTLQSFQFDFIGDTLTDDEINIAESFKEFAELLNEVENERMMMVHNASDLLIKPLENFRKEQIGFTKERKKKFEKDGERFYSLLDRHLHLSSKKKESQLQEADLQVDKERHNFFESSLDYVYQIQEVQESKKFNIVEPVLAFLHSLFISNSLTVELTQDFLPYKQQLQLSLQNTRNHFSSTREEMEELKKRMKEAPQTCKLPGQPTIEGYLYTQEKCVWGHRGIHWVSISQELLPLVGCEFWAPLLFIDP,not failed
12,MTDEIISYQKAKLAKNLAISTASKWLFVHSSTGGSATNLSIAQYATLINGIQSAIKCQVILTAGKGERERAVELAEKLTDQNVVIYDKNDGLADFTRSLACADLFIAGSTGPLHIAGGLNIPTVGFYPSRLSATPRRWRPINQVDKHLAFCPPSGKQCEMDLTLISIEQALTSVIPFIKKMWQLSLEHHHHHH,not failed
13,MKQQKGVALITILVMVALATILAATIAKHQGNTAESTGYLMRQNQSLLYAKSAEAFFSELLIQDAENSPDVDHLAETWAQPMPPFPVEDGFVSGTLRDESGKFNLNNLVNADGTPNPAAQLWFEQLLVRVGLPAELSQAVIDWQDPDDQITGAMGAESNYYQGLSHPYLAANSKFQSVDELRLVRGFEGKKFDLIRPYISALPSVSTTKVNINTAPALLLASIDKNLDINAVQVALKEKMANLGYFKSVDELWALDAFKNIDQDSKTKISTLLDVKSSYFKAYIEVVLSERKRQFTSDLMRNNKKVYVYSRSLTPIFDIPQN,failed
14,MVQTKRYAGLTAANTKKVAMAAPMFSIIIPTLNVAAVLPACLDSIARQTCGDFELVLVDGGSTDETLDIANIFAPNLGERLIIHRDTDQGVYDAMNRGVDLATGTWLLFLGADDSLYEADTLARVAAFIGEHEPSDLVYGDVIMRSTNFRWGGAFDLDRLLFKRNICHQAIFYRRGLFGTIGPYNLRYRVLADWDFNIRCFSNPALVTRYMHVVVASYNEFGGLSNTIVDKEFLKRLPMSTRLGIRLVIVLVRRWPKVISRAMVMRTVISWRRRR,failed
15,MQRTLDITQAMIDGYGRINGDNDIIHYDHDYAVQRGFRGTLLHGPHMTALAADLGARRYASDWLYRGKLHTKWIGPVCPGDTFVAALNEQGEIEAVSGGKTVMVGSASLAD,failed
16,MPSTQSLTVAAKTLRNRIFSRSGSTSAGPSRWATPGHEERPKGYFMNRTPPAPGQSRKWEDWELPCYITSFLTIVILGVGLNAKPDLSIETWAHQKALERLEMEKLATAGDSSD,failed
17,MAEEAKAKGNAAFSSGDFTTAINHFTEAIALAPTNHVLFSNRSAAHASLHQYAEALSDAKETIKLKPYWPKGYSRLGAAHLGLNQFELAVTAYKKGLDVDPTNEALKSGLADAEASVARSRAAPNPFGDAFQGPEMWTKLTSDPSTRGFLQQPDFVNMMQEIQKNPSSLNLYLKDQRVMQSLGVLLNVKFRPPPPQGDEAEVPESDMGQSSSNEPEVEKKREPEPEPEPEVTEEKEKKERKEKAKKEKELGNAAYKKKDFETAIQHYSTAIEIDDEDISYLTNRAAVYLEMGKYNECIEDCNKAVERGRELRSDYKMVARALTRKGTALTKMAKCSKDYEPAIEAFQKALTEHRNPDTLKRLNDAERAKKEWEQKQYFDPKLGDEEREKGNDFFKEQKYPEAIKHYTEAIKRNPNDHKAYSNRAASYTKLGAMPEGLKDAEKCIELDPTFSKGYSRKAAVQFFLKEYDNAMETYQAGLEHDPSNQELLDGVKRCVQQINKANRGDLTPEELKERQAKGMQDPEIQNILTDPVMRQVLSDLQENPSAAQKHMQNPMVMNKIQKLISAGIVQMK,failed
18,MQPTGNQIQQNQQQQQQLIMRVPKQEVSVSGAARRYVQQAPPNRPPRQNHQNGAIGGKKSSVTIQEVPNNAYLETLNKSGNNKVDDDKLPVFLIKLWNIVEDPNLQSIVHWDDSGASFHISDPYLFGRNVLPHFFKHNNMNSMVRQLNMYGFRKMTPLSQGGLTRTESDQDHLEFSHPCFVQGRPELLSQIKRKQSARTVEDKQVNEQTQQNLEVVMAEMRAMREKAKNMEDKMNKLTKENRDMWTQMGSMRQQHARQQQYFKKLLHFLVSVMQPGLSKRVAKRGVLEIDFCAANGTAGPNSKRARMNSEEGPYKDVCDLLESLQRETQEPFSRRFTNNEGPLISEVTDEFGNSPVGRGSAQDLFGDTFGAQSSRYSDGGATSSREQSPHPIISQPQSNSAGAHGANEQKPDDMYMGSGPLTHENIHRGISALKRDYQGASPASGGPSTSSSAPSGAGAGARMAQKRAAPYKNATRQMAQPQQDYSGGFVNNYSGFMPSDPSMIPYQPSHQYLQPHQKLMAIEDQHHPTTSTSSTNADPHQNLYSPTLGLSPSFDRQLSQELQEYFTGTDTSLESFRDLVSNHNWDDFGNNVPLDDDEEGSEDPLRQLALENAPETSNYDGAEDLLFDNEQQYPENGFDVPDPNYLPLADEEIFPHSPALRTPSPSDPNLV,not failed
19,MSGGQQERHVLILNTVGGRRAIALEAAAYSLGRDESNAIVIDFETVSRQHAILLRVPVPGTTSYRYRLVDGNANGKPSTNGTFVNGKRISSHELQHGDVILFGRKAKASYLLLSMADTEFSQYLQSIAFQSIKSDLRGAKETLVGMELSGELRRTPNRELEHHHHHH,not failed
20,MIHDLLLACRSHNPEQLGIKAFNETTVIDQFIHPCEREIFMDIIKIIKVYQEVEQFTHSSGRKSDTHGELPDSLHGYYLLNLAKGIEMALEEYYAEIGRLEKYCLGNERNSLSYVYNALYAKFPLLVFMRNLITEIHVLNLRGCVLLHNLHQQCEHGDIQLEKAIKIIMKPVKNAFFSSLAHWLLFGVIDDVHSEFFIKFTPTDAVDGSSFSKSATCSLLSAEKNPEDYIWQYEVNMSQLPGFFSIVLAEKVLFVGQTVLVFKMGRNVKVKNKTDPLAAKLAELDSDDIYQLWSGRESEFFKMVVDLSNEDTINVFRLEKVIIDIKNYVSARLSEIAVNEVDLERQMGLIKDFFLLGRGEFYLEFCSQMVGTMETYREERFKNVTRSFELAATVTGITDDLDKFSLICQRSTSEPDDTSDFNFLQGLSLKYEYEWPLNLLFSPTTIERYNNIFRFLLIIRTYQYEIQRVWAKQTWRAKSAKDVPPNNKIITLRNYLMFFLNNMQYYIQVDVLESQFGILMNVIKSRSDFEVIQRAHTVFLANVLSHCFLLNESETQLNVTGSQNRNPIYGTLLKLFGICEKFAHMTQTKDPSDDLEDEVDQLNESFGVQIASLIQLLVDVKSASCLGPLSQLLLRLDFNCWFSASHNTSA,failed
